The values below are quoted from earlier work in article PMC4485553.

What is called KD is a measure of binding affinity in units of concentration.

In this data set the target is human IgG1, wild type (UniProt P01857). Kind of data set: not stated in this review. To be noted: pH 6.

On to FcRn (neonatal Fc receptor), mouse, for which the KD was 32 nM.
